Two proteins from publication PMC6526958 can be followed below.

Substrate in series [1]: Nc1ncnc2c1ncn2[C@@H]1O[C@H](COP(=O)(O)O)[C@@H](O)[C@H]1O
As to the kind of experiment: radiometric CD73 assay, membrane preparations of MDA-MB-231 cells. In kind it is biochemical, human. Particulars: other: substrate AMP; membrane preparation; 37.0 °C.

Substrate in series [2]: Nc1ncnc2c1ncn2[C@@H]1O[C@H](COP(=O)(O)O)[C@@H](O)[C@H]1O
Description: purified protein, by the assay type. In kind it is biochemical, human. Particulars: other: substrate AMP.

B1: membrane-bound CD73 (MDA-MB-231 membrane preparation) (Homo sapiens) (protein)
chain: WELTILHTNDVHSRLEQTSEDSSKCVNASRCMGGVARLFTKVQQIRRAEPNVLLLDAGDQYQGTIWFTVYKGAEVAHFMNALRYDAMALGNHEFDNGVEGLIEPLLKEAKFPILSANIKAKGPLASQISGLYLPYKVLPVGDEVVGIVGYTSKETPFLSNPGTNLVFEDEITALQPEVDKLKTLNVNKIIALGHSGFEMDKLIAQKVRGVDVVVGGHSNTFLYTGNPPSKEVPAGKYPFIVTSDDGRKVPVVQAYAFGKYLGYLKIEFDERGNVISSHGNPILLNSSIPEDPSIKADINKWRIKLDNYSTQELGKTIVYLDGSSQSCRFRECNMGNLICDAMINNNLRHTDEMFWNHVSMCILNGGGIRSPIDERNNGTITWENLAAVLPFGGTFDLVQLKGSTLKKAFEHSVHRYGQSTGEFLQVGGIHVVYDLSRKPGDRVVKLDVLCTKCRVPSYDPLKMDEVYKVILPNFLANGGDGFQMIKDELLRHDSGDQDINVVSTYISKMKVIYPAVEGRIKFSTGSHCHGSFSLIFLSLWAVIFVLYQ
Take B1: the Km – broadly, the substrate concentration at which the rate is half of its maximum – in series [1] is reported as 14.8 ± 2.1 µM.

B2: recombinant soluble human CD73 (Homo sapiens) (protein)
chain: ELTILHTNDVHSRLEQTSEDSSKCVNASRCMGGVARLFTKVQQIRRAEPNVLLLDAGDQYQGTIWFTVYKGAEVAHFMNALRYDAMALGNHEFDNGVEGLIEPLLKEAKFPILSANIKAKGPLASQISGLYLPYKVLPVGDEVVGIVGYTSKETPFLSNPGTNLVFEDEITALQPEVDKLKTLNVNKIIALGHSGFEMDKLIAQKVRGVDVVVGGHSNTFLYTGNPPSKEVPAGKYPFIVTSDDGRKVPVVQAYAFGKYLGYLKIEFDERGNVISSHGNPILLNSSIPEDPSIKADINKWRIKLDNYSTQELGKTIVYLDGSSQSCRFRECNMGNLICDAMINNNLRHTDEMFWNHVSMCILNGGGIRSPIDERNNGTITWENLAAVLPFGGTFDLVQLKGSTLKKAFEHSVHRYGQSTGEFLQVGGIHVVYDLSRKPGDRVVKLDVLCTKCRVPSYDPLKMDEVYKVILPNFLANGGDGFQMIKDELLRHDSGDQDINVVSTYISKMKVIYPAVEGRIKFS
For B2, the Michaelis constant (Km) in series [2] is 17.0 ± 2.1 µM.
